Experiment [1] addresses human ACE2 with a C-terminal FLAG tag, on transduced HeLa cells (human) (UniProt Q9BYF1). The experiment can be described thus: flow cytometry on cells. On the technique in general: Flow cytometry measures light scatter and fluorescence of single cells or particles in a stream.
For experiment [2], the target named is mink ACE2 with a C-terminal FLAG tag, on transduced HeLa cells (mink (Neovison vison)). In words: flow cytometry on cells.

In the case of “WT S1 domain of SARS-CoV-2 spike C-terminally fused with a His tag (domain or fragment)”, the percent of ACE2-expressing cells positive for S1-Fc turned out to be 86.5% in experiment [1] and 1.2% in experiment [2].

Source of the values: paper PMC8601601.
